Tests used:
[1] = substrate: O=C(O)/C=C/c1ccccc1; test: purified protein; settings: 1 mM CoA, 1 mM ATP, 1 mM MgCl2, 50 mM Tris pH 7.5, 55°C, 0.5 μM enzyme, 50-7000 μM substrate
[2] = substrate: O=C(O)/C=C/c1ccc(O)cc1; test: coupled pyrophosphate assay (EnzChek); format: biochemical, Chitinophaga pinensis; settings: 1 mM CoA, 1 mM ATP, 1 mM MgCl2, 50 mM Tris pH 7.5, 55°C, 0.5 μM enzyme, 10-750 μM substrate

B1: FlxY (Chitinophaga pinensis DSM 2588) (protein)
chain: MYIPDIELQSTAAIRKYQETEVLRLLGYLRQFSPFYREWFAQHGIQPSTVKSLNDLWLIPPVTKEHLQQQNWDFLCVDKSRIAEYTTTSGTLGNPVIIALTQKDQERLSYNEYISFCCAGGTENDIYQLMLTLDRQFMAGMAYYNGIRKLGAGVLRVGPGVPSLQWENISRIQPTTIVAVPSFIVKLIAFAKEHNIDINASSVKSAVCIGENIRNVDFSLNVLGKKITEQWDIKLYSTYASTEMQTAFTECNAGQGGHHHPELLYIELLDDNNQPVGPNQDGEVTITTLGVEGMPLLRYKTGDICRYFQEPCSCGRHTMRLSPVIGRRKQMIKYKGTTLYPPALFDLLNDMEEVKEFVVEVFSNEIGTDEILLHLWPVAETEDIDRKIRSYLQAKLRVIPQVRYCSQADVMKMQFPEGSRKPIKFIDRR
notes: His6-tagged full-length (pCOLADuet-1, BamHI/HindIII), expressed in E. coli BL21 (DE3), HisTrap purified, tag kept; expected size 49 kDa
[1]
  Km: 868 µM
[2]
  Km: 17 µM

— paper PMC3992019, “Initiation of the flexirubin biosynthesis in Chitinophaga pinensis” (Microbial Biotechnology, 2014)
